Test results from the supplement of paper PMC9112550, “Optimization of the antimicrobial peptide Bac7 by deep mutational scanning” (BMC Biology, 2022).

Test system: Escherichia coli TOP10
Experiment: shrunken log2 fold change of peptide-encoding DNA abundance (4.5 h post-induction vs induction); higher = less antimicrobial activity (less host growth inhibition)
Conditions: time post-induction: 4.5 h; library: site-saturation at positions 5, 18, 19, 20
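Note: peptides expressed intracellularly from a pBAD plasmid library in pooled LB shake-flask culture, induced with 0.3% L-arabinose, DNA abundance read by NGS, three biological replicates, DESeq2 with apeglm shrinkage.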

Sequence | shrunken log2 fold change
RRIRIRPPRLPRPRPRPLRFPRP | -0.21
RRIRIRPPRLPRPRPRPKRQPRP | 0.174
RRIRARPPRLPRPRPRPRWIPRP | 0.239
RRIRRRPPRLPRPRPRPIYVPRP | -0.114
RRIRQRPPRLPRPRPRPLQPPRP | -0.0373
RRIRARPPRLPRPRPRPFWYPRP | -0.181
RRIRERPPRLPRPRPRPYQTPRP | -0.135
RRIRMRPPRLPRPRPRPRMEPRP | 0.0362
RRIRCRPPRLPRPRPRPETLPRP | -0.193
RRIRGRPPRLPRPRPRPGKRPRP | 0.249
RRIRMRPPRLPRPRPRPFKNPRP | 0.129
RRIRWRPPRLPRPRPRPLNSPRP | -0.107
RRIRMRPPRLPRPRPRPHCNPRP | 0.043
RRIRFRPPRLPRPRPRPKQIPRP | -0.218
RRIRHRPPRLPRPRPRPIGFPRP | -0.0167
RRIRSRPPRLPRPRPRPRYIPRP | -0.707
RRIRERPPRLPRPRPRPSGVPRP | -0.157
RRIRFRPPRLPRPRPRPYKQPRP | -0.83
RRIRNRPPRLPRPRPRPAYMPRP | -0.119
RRIRQRPPRLPRPRPRPKLPPRP | 0.146
RRIRTRPPRLPRPRPRPYMRPRP | -0.48
RRIRERPPRLPRPRPRPWFKPRP | -0.0858
RRIRTRPPRLPRPRPRPDAHPRP | 0.128
RRIRQRPPRLPRPRPRPTAFPRP | 0.321
RRIRMRPPRLPRPRPRPSQSPRP | 0.53

Sequence | shrunken log2 fold change
RRIRSRPPRLPRPRPRPNCLPRP | -0.28
RRIRGRPPRLPRPRPRPLVCPRP | 0.584
RRIRERPPRLPRPRPRPSISPRP | 0.0881
RRIRVRPPRLPRPRPRPEWGPRP | 2.29
RRIRGRPPRLPRPRPRPEYTPRP | 0.335
RRIRVRPPRLPRPRPRPTERPRP | 0.302
RRIRMRPPRLPRPRPRPKIYPRP | -0.107
RRIRRRPPRLPRPRPRPPPHPRP | 0.968
RRIRNRPPRLPRPRPRPLFMPRP | -0.235
RRIRYRPPRLPRPRPRPPASPRP | 0.249
RRIRQRPPRLPRPRPRPGWIPRP | 0.179
RRIRGRPPRLPRPRPRPHKIPRP | 0.11
RRIRCRPPRLPRPRPRPNVVPRP | 0.0385
RRIRMRPPRLPRPRPRPSKEPRP | 0.203
RRIRVRPPRLPRPRPRPHEWPRP | -0.276
RRIRGRPPRLPRPRPRPRQQPRP | 0.614
RRIRRRPPRLPRPRPRPHMSPRP | -0.0996
RRIRLRPPRLPRPRPRPFARPRP | -0.00783
RRIRFRPPRLPRPRPRPVQHPRP | -0.044
RRIRWRPPRLPRPRPRPGWSPRP | 0.221
RRIRCRPPRLPRPRPRPFQMPRP | -0.423
RRIRARPPRLPRPRPRPIDMPRP | -0.0819
RRIRFRPPRLPRPRPRPAPVPRP | 0.323
RRIRWRPPRLPRPRPRPGCEPRP | 0.901
RRIRCRPPRLPRPRPRPMDFPRP | -0.151
